Data from JP2008058208A (dated 2008).

Experiments:
[1] = target: T1, C−反応性タンパク(CRP), ヒトCRP抗原 (human, UniProt P02741 19-224); test: phage ELISA on plate-coated CRP, detected with HRP/anti-M13
T1 sequence (looked up): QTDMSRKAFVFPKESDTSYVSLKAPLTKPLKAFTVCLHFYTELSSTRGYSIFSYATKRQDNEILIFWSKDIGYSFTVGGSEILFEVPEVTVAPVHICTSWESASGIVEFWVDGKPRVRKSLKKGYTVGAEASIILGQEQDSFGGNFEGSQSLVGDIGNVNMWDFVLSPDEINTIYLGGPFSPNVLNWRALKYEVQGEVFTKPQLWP

[2] = target: T1, C−反応性タンパク(CRP), ヒトCRP抗原; test: ELISA of His-tag purified scFv on CRP
[3] = target: T2, Protein A (Staphylococcus aureus, UniProt P38507 37-477); test: immunochromatography test strip, His20 as capture and as gold-colloid label; samples of Protein A and S. aureus cell suspensions
T2 construct: also called プロテインA; Staphylococcus aureusが産生するProtein A

B1: 陽性クローン株No.40のファージ抗体 (scFv No.40 displayed on M13 phage) (scFv)
scFv: MAQVKLQQSGAEVVKPGASVKLSCKASGYTFIFYHIYWVKQRPGQGLEWIGGINPRSGGTNLNEKFKSKATLTVDKSSSTAYMQLNGLTSEDSAFYYCTRSGTTYDYALDYWGQGTTVTVSSGGGGSGGGGSGGGGSDIELTQSPAIMAASLGQKVTMTCSASSSMSSSYLHWYQQKSGASPKPLIHRTSTLASGVPARFSGSGSGTSYSLTISSVEAEDDATYYCQQWSGYPLTFGGGTKLEIKRAAA
notes: not shown: C-terminal fusion to the phage coat protein from phagemid pCANTAB5E; not spelled out
binding result [1]: binds

B2: 抗CRPscFv抗体No.40 (His-tagged scFv, His40) (scFv)
scFv: B1 scFv
notes: Mouse scFv (VH-(G4S)3 linker-VL) from an immune phage library, expressed in E. coli HB2151 and purified by the His tag; also called No.40抗体; not shown: C-terminal 6x histidine tag added by a standard method
binding result [2]: binds

B3: 陽性クローン株No.20のファージ抗体 (scFv No.20 displayed on M13 phage) (scFv)
scFv: MAQVKLPESGAELVKPGASVKLSCTPSGFNIKDTYIHWVRQRPGQGLEWIGRIDPANGHTRYAPKFQGKATLTADASSNTAYLHLSSLTSEDTAVYYCPRIVWYSGGYAMDYWGQGTTVTVSSGGGGSGGGGSGGGGSDIELTQSPSSMYASLGERVTITCKASQDINSYLSWFQQKPGKSPKTLIYRANRLVDGVPSRFSGSGSGQDYSLTISSLKYEDMGIYYCLQYDEFPLTFGGGTKLEIKRAA
notes: as for B1
binding result [1]: binds

B4: 抗CRPscFv抗体No.20 (His-tagged scFv, His20) (scFv)
scFv: B3 scFv
notes: Mouse scFv (VH-(G4S)3 linker-VL) from an immune phage library, expressed in E. coli HB2151 and purified by the His tag; also called No.20抗体; His20 scFv抗体; not shown: C-terminal 6x histidine tag added by a standard method
binding result [3]: no binding
